Results taken from patent publication US20150203577A1 (Chugai, published 2015).
Changes are numbered by the printed parent chain.

T1: mouse FcγRII extracellular domain, C-terminal His tag (mouse, UniProt P08101 30-210)
T1 construct: also called mFcγRII; mFcgRII
T1 sequence: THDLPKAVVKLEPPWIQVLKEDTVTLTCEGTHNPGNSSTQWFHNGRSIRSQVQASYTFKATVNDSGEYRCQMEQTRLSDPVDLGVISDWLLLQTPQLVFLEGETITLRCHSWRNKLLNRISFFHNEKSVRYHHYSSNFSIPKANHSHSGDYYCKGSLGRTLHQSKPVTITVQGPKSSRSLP

T2: mouse FcγRIII extracellular domain, C-terminal His tag (mouse, UniProt P08508 31-215)
T2 construct: also called mFcγRIII; mFcgRIII
T2 chain: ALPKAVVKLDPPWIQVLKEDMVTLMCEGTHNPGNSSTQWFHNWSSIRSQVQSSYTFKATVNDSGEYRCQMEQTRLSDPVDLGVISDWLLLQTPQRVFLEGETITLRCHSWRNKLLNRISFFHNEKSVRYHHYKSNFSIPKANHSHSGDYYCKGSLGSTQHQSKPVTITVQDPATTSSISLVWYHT

B1: H237-MB808/MRAL-k0 (antibody, mouse IgG1, kappa)
heavy: QVQLQESGPGLVKPSETLSLTCAVSGHSISHDHAWSWVRQPPGEGLEWIGFISYSGITNYNPSLQGRVTISRDNSKNTLYLQMNSLRAEDTAVYYCARSLARTTAMDYWGEGTLVTVSSAKTTPPSVYPLAPGSAAQTNSMVTLGCLVKGYFPEPVTVTWNSGSLSSGVHTFPAVLQSDLYTLSSSVTVPSSTWPSETVTCNVAHPASSTKVDKKIVPRDCGCKPCICEPNEVELVFIFPPKPKDVLTITLTPKVTCVVVDISKDDPEVQFSWFVDDVEVHTAQTQPREELFNSTFRSVSELPIMHQDWLNGKEFKCRVNSAGFPAPIEKTISKTKGRPKAPQVYTIPPPKEQMAKDKVSLTCMITDFFPEDITVEWQWNGQPAENYKNTQPIMDTDGSYFVYSKLNVQKSNWEAGNTFTCSVLHEGLHNHHTEKSLSHSPGK
light: not shown
notes: copies: 2 + 2
B2: H237-MB809/MRAL-k0 (antibody, mouse IgG1, kappa)
heavy: B1 heavy with G323A, P327F
light: not shown
notes: copies: 2 + 2
B3: H237-MB810/MRAL-k0 (antibody, mouse IgG1, kappa)
heavy: B1 heavy with G323A, P327Y
light: not shown
notes: copies: 2 + 2
B4: H237-MB811/MRAL-k0 (antibody, mouse IgG1, kappa)
heavy: B1 heavy with G323A, E329Y
light: not shown
notes: copies: 2 + 2
B5: H237-MB812/MRAL-k0 (antibody, mouse IgG1, kappa)
heavy: B1 heavy with L291Q, N320D
light: not shown
notes: copies: 2 + 2
B6: H237-MB813/MRAL-k0 (antibody, mouse IgG1, kappa)
heavy: B1 heavy with L291Q, N320D, G323A, P327F
light: not shown
notes: copies: 2 + 2
B7: H237-MB814/MRAL-k0 (antibody, mouse IgG1, kappa)
heavy: B1 heavy with L291Q, N320D, G323A, P327Y
light: not shown
notes: copies: 2 + 2
B8: H237-MB815/MRAL-k0 (antibody, mouse IgG1, kappa)
heavy: B1 heavy with L291Q, N320D, G323A, E329Y
light: not shown
notes: copies: 2 + 2
B9: H237-MB816/MRAL-k0 (antibody, mouse IgG1, kappa)
heavy: B1 heavy with L291Q, N320M, A322D, G323A
light: not shown
notes: copies: 2 + 2
B10: H237-MB817/MRAL-k0 (antibody, mouse IgG1, kappa)
heavy: B1 heavy with L291Q, N320M
light: not shown
notes: copies: 2 + 2
B11: H237-MB818/MRAL-k0 (antibody, mouse IgG1, kappa)
heavy: B1 heavy with L291Q, N320M, G323A, P327F
light: not shown
notes: copies: 2 + 2
B12: H237-MB819/MRAL-k0 (antibody, mouse IgG1, kappa)
heavy: B1 heavy with L291Q, N320M, G323A, P327Y
light: not shown
notes: copies: 2 + 2
B13: H237-MB820/MRAL-k0 (antibody, mouse IgG1, kappa)
heavy: B1 heavy with L291Q, N320M, G323A, E329Y
light: not shown
notes: copies: 2 + 2
B14: H237-MB821/MRAL-k0 (antibody, mouse IgG1, kappa)
heavy: B1 heavy with L291Q, N320M, G323A, K330R
light: not shown
notes: copies: 2 + 2
B15: H237-MB822/MRAL-k0 (antibody, mouse IgG1, kappa)
heavy: B1 heavy with L291Q, A322D
light: not shown
notes: copies: 2 + 2

molecular target: T1, mouse FcγRII extracellular domain, …; assay: SPR (Biacore T200), antibody captured on Protein L, mFcγR analyte
Experimental: (§1) Each altered antibody was analyzed for its interaction with each Fcγ receptor prepared above using Biacore T100 (GE Healthcare Japan Corp.), Biacore T200 (GE Healthcare Japan Corp.), Biacore A100, or Biacore 4000. The running buffer used was HBS-EP+ (GE Healthcare Japan Corp.). The assay temperature was set to 25° C. The sensor chips used were chips prepared by immobilizing Protein L (ACTIGEN or BioVision) onto Series S Sensor Chip CM5 (GE Healthcare Japan Corp.) or Series S Sensor Chip CM4 (GE Healthcare Japan Corp.) by the amine coupling method.
(§2) In order to calculate the KD value of each altered antibody for FcγR, kinetic analysis was conducted according to the following method: first, the antibody of interest was captured onto any of these chips and allowed to interact with mFcγR diluted with a running buffer. For the obtained sensorgram, the assay results were globally fit into the 1:1 Langmuir binding model using Biacore Evaluation Software to calculate an association rate constant ka (L/mol/s) and a dissociation rate constant kd (1/s). From these values, the dissociation constant KD (mol/L) was calculated.

Which results are given for B1?
Kd: 7.19 nM; relative mFcγRII-binding activity (mIgG1 = 1): 29.2 fold vs H237-mIgG1/MRAL-k0

Which results are given for B2?
Kd: 11.1 nM; relative mFcγRII-binding activity (mIgG1 = 1): 19 fold vs H237-mIgG1/MRAL-k0

What does the source list for B3?
Kd: 10.1 nM; relative mFcγRII-binding activity (mIgG1 = 1): 20.8 fold vs H237-mIgG1/MRAL-k0

B4 was tested. Which Kd did it give?
The Kd was 9.45 nM.

And the “relative mFcγRII-binding activity (mIgG1 = 1)” value?
The value was 22.2 fold vs H237-mIgG1/MRAL-k0.

With B5 as the binder, how does the Kd read?
The Kd was 6.28 nM.

And the “relative mFcγRII-binding activity (mIgG1 = 1)” value?
Its value is 33.4 fold vs H237-mIgG1/MRAL-k0.

How did the Kd turn out when B6 was run?
The Kd was 12.9 nM.

And the “relative mFcγRII-binding activity (mIgG1 = 1)” value?
Its value is 16.3 fold vs H237-mIgG1/MRAL-k0.

Which results are given for B7?
Kd: 11.7 nM; relative mFcγRII-binding activity (mIgG1 = 1): 18 fold vs H237-mIgG1/MRAL-k0

Which Kd does the source give for B8 here?
Its Kd is 12 nM.

And the “relative mFcγRII-binding activity (mIgG1 = 1)” value?
Its value is 17.6 fold vs H237-mIgG1/MRAL-k0.

Which results are given for B9?
Kd: 6.9 nM; relative mFcγRII-binding activity (mIgG1 = 1): 30.4 fold vs H237-mIgG1/MRAL-k0

What does the source list for B10?
Kd: 7.38 nM; relative mFcγRII-binding activity (mIgG1 = 1): 28.5 fold vs H237-mIgG1/MRAL-k0

Which Kd does the source give for B11 here?
The Kd was 13.5 nM.

And the “relative mFcγRII-binding activity (mIgG1 = 1)” value?
Its value is 15.6 fold vs H237-mIgG1/MRAL-k0.

Which Kd does the source give for B12 here?
The Kd was 11.6 nM.

And the “relative mFcγRII-binding activity (mIgG1 = 1)” value?
The value was 18.1 fold vs H237-mIgG1/MRAL-k0.

With B13 as the binder, how does the Kd read?
Its Kd is 10.8 nM.

And the “relative mFcγRII-binding activity (mIgG1 = 1)” value?
The value was 19.5 fold vs H237-mIgG1/MRAL-k0.

B14 was tested. Which Kd did it give?
Its Kd is 8.6 nM.

What about the “relative mFcγRII-binding activity (mIgG1 = 1)” value of the same binder?
The value was 24.4 fold vs H237-mIgG1/MRAL-k0.

B15 was tested. Which Kd did it give?
Its Kd is 4.8 nM.

And the “relative mFcγRII-binding activity (mIgG1 = 1)” value?
The value was 43.8 fold vs H237-mIgG1/MRAL-k0.

Molecular target: T2, mouse FcγRIII extracellular domain, …
Assay: as above
Experimental: as §1, §2

What does the source list for B1?
Kd: 359 nM; relative mFcγRIII-binding activity (mIgG1 = 1): 0.8 fold vs H237-mIgG1/MRAL-k0

Which results are given for B2?
Kd: 638 nM; relative mFcγRIII-binding activity (mIgG1 = 1): 0.4 fold vs H237-mIgG1/MRAL-k0

Which Kd does the source give for B3 here?
Its Kd is 546 nM.

What about the “relative mFcγRIII-binding activity (mIgG1 = 1)” value of the same binder?
The value was 0.5 fold vs H237-mIgG1/MRAL-k0.

For B4, which Kd is on record?
The Kd was 654 nM.

What about the “relative mFcγRIII-binding activity (mIgG1 = 1)” value of the same binder?
The value was 0.4 fold vs H237-mIgG1/MRAL-k0.

Which Kd does the source give for B5 here?
Its Kd is 418 nM.

What about the “relative mFcγRIII-binding activity (mIgG1 = 1)” value of the same binder?
Its value is 0.7 fold vs H237-mIgG1/MRAL-k0.

B6 was tested. Which Kd did it give?
Its Kd is 951 nM.

What about the “relative mFcγRIII-binding activity (mIgG1 = 1)” value of the same binder?
The value was 0.3 fold vs H237-mIgG1/MRAL-k0.

For B7, which Kd is on record?
Its Kd is 826 nM.

And the “relative mFcγRIII-binding activity (mIgG1 = 1)” value?
Its value is 0.3 fold vs H237-mIgG1/MRAL-k0.

How did the Kd turn out when B8 was run?
Its Kd is 938 nM.

What about the “relative mFcγRIII-binding activity (mIgG1 = 1)” value of the same binder?
The value was 0.3 fold vs H237-mIgG1/MRAL-k0.

Which Kd does the source give for B9 here?
Its Kd is 431 nM.

What about the “relative mFcγRIII-binding activity (mIgG1 = 1)” value of the same binder?
The value was 0.7 fold vs H237-mIgG1/MRAL-k0.

Which results are given for B10?
Kd: 539 nM; relative mFcγRIII-binding activity (mIgG1 = 1): 0.5 fold vs H237-mIgG1/MRAL-k0

With B11 as the binder, how does the Kd read?
The Kd was 979 nM.

What about the “relative mFcγRIII-binding activity (mIgG1 = 1)” value of the same binder?
The value was 0.3 fold vs H237-mIgG1/MRAL-k0.

What does the source list for B12?
Kd: 872 nM; relative mFcγRIII-binding activity (mIgG1 = 1): 0.3 fold vs H237-mIgG1/MRAL-k0

For B13, which Kd is on record?
The Kd was 854 nM.

What about the “relative mFcγRIII-binding activity (mIgG1 = 1)” value of the same binder?
The value was 0.3 fold vs H237-mIgG1/MRAL-k0.

With B14 as the binder, how does the Kd read?
The Kd was 625 nM.

And the “relative mFcγRIII-binding activity (mIgG1 = 1)” value?
Its value is 0.5 fold vs H237-mIgG1/MRAL-k0.

How did the Kd turn out when B15 was run?
Its Kd is 304 nM.

And the “relative mFcγRIII-binding activity (mIgG1 = 1)” value?
The value was 0.9 fold vs H237-mIgG1/MRAL-k0.
